Read-outs that look alike come from different tables or passages of the source. Starred links: 1 amine or outer side, 2 acyl side, 3 side chain; linkers in the order of their positions; H or OH if unused. Positions of bridges follow the written chain, without caps; N, C: chain ends. Non-standard residues stand in square brackets, D forms with d. Groups on a side chain read outwards from the residue. No end group written: not given here. *: point of attachment. γGlu = O=C(O)[C@H](CCC(=O)[*:2])N[*:1]; PEG40kDa = 40 kDa polyethylene glycol; Stearoyl = CCCCCCCCCCCCCCCCCC(=O)*; Palmitoyl = CCCCCCCCCCCCCCCC(=O)*; Myristoyl = CCCCCCCCCCCCCC(=O)*; Dab = NCC[C@H](N)C(=O)O; Aib = CC(C)(N)C(=O)O
Columns and labels:
Experiment in all cases: cell-based or functional assay
GLP-1 receptor [1] = biological target: T1, GLP-1 receptor (UniProt P43220 24-463, limits assumed)
glucagon receptor [2] = biological target: T2, glucagon receptor (UniProt P47871 26-477, limits assumed)
T2 sequence (P47871 26-477 limits assumed): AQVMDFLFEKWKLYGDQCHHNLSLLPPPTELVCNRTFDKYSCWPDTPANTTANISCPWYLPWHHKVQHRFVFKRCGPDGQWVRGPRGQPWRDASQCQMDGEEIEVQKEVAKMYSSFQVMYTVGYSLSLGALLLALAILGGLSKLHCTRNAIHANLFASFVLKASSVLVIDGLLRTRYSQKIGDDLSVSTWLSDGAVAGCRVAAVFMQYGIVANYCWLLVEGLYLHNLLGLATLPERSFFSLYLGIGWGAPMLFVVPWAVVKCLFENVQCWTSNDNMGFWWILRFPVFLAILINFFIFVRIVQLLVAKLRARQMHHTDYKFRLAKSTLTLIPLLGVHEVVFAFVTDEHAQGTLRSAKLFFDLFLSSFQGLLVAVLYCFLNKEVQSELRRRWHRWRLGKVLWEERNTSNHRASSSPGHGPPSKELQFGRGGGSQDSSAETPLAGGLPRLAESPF

GLP-1 receptor [3] = biological target: T1, GLP-1 receptor; remark: listed apart in the source
glucagon receptor [4] = biological target: T2, glucagon receptor; remark: listed apart in the source
GLP-1 receptor [5] = biological target: T1, GLP-1 receptor; remark: listed apart in the source
glucagon receptor [6] = biological target: T2, glucagon receptor; remark: listed apart in the source
GLP-1 receptor [7] = biological target: T1, GLP-1 receptor; remark: listed apart in the source
GLP-1 receptor [8] = biological target: T1, GLP-1 receptor; remark: listed apart in the source
glucagon receptor [9] = biological target: T2, glucagon receptor; remark: listed apart in the source
glucagon receptor [10] = biological target: T2, glucagon receptor; remark: listed apart in the source
GLP-1 receptor [11] = biological target: T1, GLP-1 receptor; remark: listed apart in the source
glucagon receptor [12] = biological target: T2, glucagon receptor; remark: listed apart in the source

B1: E16 GLP(17-26)Glu(27-29)-NH2 (peptide)
peptide: HSQGTFTSDYSKYLDEQAAKEFIAWLMNT-NH2
cAMP induction EC50 (GLP-1 receptor [1]): 0.014 nM | cAMP induction EC50 (glucagon receptor [2]): 0.076 nM

B2: MKGG30 PSSGAPPPS (SEQ ID NO: 523) (peptide)
peptide: HSQGTFTSDYSKYLDSRRAQDFVQWLMKGGPSSGAPPPS-NH2
EC50 (GLP-1 receptor [3]): 0.8 nM | Relative Potency (%) (GLP-1 receptor [3]): 3% | EC50 (glucagon receptor [4]): 0.61 nM | Relative Potency (%) (glucagon receptor [4]): 14%

B3: VKGG30 PSSGAPPPS (SEQ ID NO: 524) (peptide)
peptide: HSQGTFTSDYSKYLDSRRAQDFVQWLVKGGPSSGAPPPS-NH2
EC50 (GLP-1 receptor [3]): 0.21 nM | Relative Potency (%) (GLP-1 receptor [3]): 12% | EC50 (glucagon receptor [4]): 1.16 nM | Relative Potency (%) (glucagon receptor [4]): 7%

B4: MDGG30 PSSGAPPPS (SEQ ID NO: 525) (peptide)
peptide: HSQGTFTSDYSKYLDSRRAQDFVQWLMDGGPSSGAPPPS-NH2
EC50 (GLP-1 receptor [3]): 0.13 nM | Relative Potency (%) (GLP-1 receptor [3]): 19% | EC50 (glucagon receptor [4]): 0.12 nM | Relative Potency (%) (glucagon receptor [4]): 72%

B5: Chimera 2 Cys24 (40K) (peptide)
peptide: HSQGTFTSDYSKYLDEQAAKEFIC(PEG 40 kDa)WLMNT-NH2
EC50 (GLP-1 receptor [5]): 0.04 nM | EC50 (glucagon receptor [6]): 2.83 nM

B6: Peptide 81** (SEQ ID NO: 618) (peptide)
peptide: H[Aib]QGTFTSDK([Ala-Ala-Myristoyl])SKYLD[Aib]RRAQDFVCWLMNT-NH2
modifications: N-terminus assumed
SMILES: CCCCCCCCCCCCCC(=O)N[C@@H](C)C(=O)N[C@@H](C)C(=O)NCCCC[C@H](NC(=O)[C@H](CC(=O)O)NC(=O)[C@H](CO)NC(=O)[C@@H](NC(=O)[C@H](Cc1ccccc1)NC(=O)[C@@H](NC(=O)CNC(=O)[C@H](CCC(N)=O)NC(=O)C(C)(C)NC(=O)[C@@H](N)Cc1c[nH]cn1)[C@@H](C)O)[C@@H](C)O)C(=O)N[C@@H](CO)C(=O)N[C@@H](CCCCN)C(=O)N[C@@H](Cc1ccc(O)cc1)C(=O)N[C@@H](CC(C)C)C(=O)N[C@@H](CC(=O)O)C(=O)NC(C)(C)C(=O)N[C@@H](CCCNC(=N)N)C(=O)N[C@@H](CCCNC(=N)N)C(=O)N[C@@H](C)C(=O)N[C@@H](CCC(N)=O)C(=O)N[C@@H](CC(=O)O)C(=O)N[C@@H](Cc1ccccc1)C(=O)N[C@H](C(=O)N[C@@H](CS)C(=O)N[C@@H](Cc1c[nH]c2ccccc12)C(=O)N[C@@H](CC(C)C)C(=O)N[C@@H](CCSC)C(=O)N[C@@H](CC(N)=O)C(=O)N[C@H](C(N)=O)[C@@H](C)O)C(C)C
EC50 (GLP-1 receptor [7]): 0.018 nM

B7: Peptide Chimera 2-AIB2-K10-acylated (peptide)
peptide: H[Aib]QGTFTSDK(Stearoyl)SKYLDEQAAKEFIC(PEG40kDa)WLMNT-NH2
EC50 (GLP-1 receptor [8]): 0.465 nM

B8: Peptide Chimera 2-AIB2-K30-acylated (peptide)
peptide: HXQGTFTSDYSKYLDEQAAKEFICWLMNTK
modifications: AIB at 2; Lys acylated with C18 (text says position 10, the name and the sequence say K30); 40 kDa PEG on Cys 24; C-terminal amide
EC50 (GLP-1 receptor [8]): 0.007 nM

B9: HSDab(Ac)…ibRRAADFVAWLLDTGPSSGAPPPS amide (SEQ ID NO: 604) (peptide)
peptide: HS[Dab](Ac)GTFTSDYSKYLD[Aib]RRAADFVAWLLDTGPSSGAPPPS-NH2
modifications: N-terminus assumed
SMILES: CC(=O)NCC[C@H](NC(=O)[C@H](CO)NC(=O)[C@@H](N)Cc1c[nH]cn1)C(=O)NCC(=O)N[C@H](C(=O)N[C@@H](Cc1ccccc1)C(=O)N[C@H](C(=O)N[C@@H](CO)C(=O)N[C@@H](CC(=O)O)C(=O)N[C@@H](Cc1ccc(O)cc1)C(=O)N[C@@H](CO)C(=O)N[C@@H](CCCCN)C(=O)N[C@@H](Cc1ccc(O)cc1)C(=O)N[C@@H](CC(C)C)C(=O)N[C@@H](CC(=O)O)C(=O)NC(C)(C)C(=O)N[C@@H](CCCNC(=N)N)C(=O)N[C@@H](CCCNC(=N)N)C(=O)N[C@@H](C)C(=O)N[C@@H](C)C(=O)N[C@@H](CC(=O)O)C(=O)N[C@@H](Cc1ccccc1)C(=O)N[C@H](C(=O)N[C@@H](C)C(=O)N[C@@H](Cc1c[nH]c2ccccc12)C(=O)N[C@@H](CC(C)C)C(=O)N[C@@H](CC(C)C)C(=O)N[C@@H](CC(=O)O)C(=O)N[C@H](C(=O)NCC(=O)N1CCC[C@H]1C(=O)N[C@@H](CO)C(=O)N[C@@H](CO)C(=O)NCC(=O)N[C@@H](C)C(=O)N1CCC[C@H]1C(=O)N1CCC[C@H]1C(=O)N1CCC[C@H]1C(=O)N[C@@H](CO)C(N)=O)[C@@H](C)O)C(C)C)[C@@H](C)O)[C@@H](C)O
% activity (glucagon receptor [9]): 113% | EC50 (glucagon receptor [9]): 0.023 nM

B10: HSDab(Ac)…ibRRASDFVSWLLDE (SEQ ID NO: 605) (peptide)
peptide: HS[Dab](Ac)GTFTSDYSKYLD[Aib]RRASDFVSWLLDE
% activity (glucagon receptor [9]): 54% | EC50 (glucagon receptor [9]): 0.048 nM

B11: HSDab(Ac)…ibRRATDFVTWLLDE (SEQ ID NO: 606) (peptide)
peptide: HS[Dab](Ac)GTFTSDYSKYLD[Aib]RRATDFVTWLLDE
% activity (glucagon receptor [9]): 46% | EC50 (glucagon receptor [9]): 0.057 nM

B12: Peptide X-PEG (peptide)
peptide: H[Aib]QGTFTSDYSKYLDEQAAKEFIC([maleimide-PEG 40 kDa])WLMNT
% activity of native glucagon (glucagon receptor [10]): 1.9% | EC50 (cAMP, CRE-luciferase) (glucagon receptor [10]): 2.9 nM

B13: Peptide Y (peptide)
peptide: H[Aib]QGTFTSDYSKYLDEQAAKEFICWLMNT
modifications: lactam 16-20
% activity of native glucagon (glucagon receptor [10]): 99.5%

B14: Chi-2, d-Ser2, Lys10 γE-C16 (SEQ ID NO: 643) (peptide)
peptide: H[dS]QGTFTSDK([γGlu-Palmitoyl])SKYLDEQAAKEFIAWLMNT
EC50 (GLP-1 receptor [11]): 0.0014 nM | EC50 (glucagon receptor [12]): 0.011 nM

B15: Chi-2, d-Ser2, Lys10 γE-γE-C16 (SEQ ID NO: 644) (peptide)
peptide: H[dS]QGTFTSDK([γGlu-γGlu-Palmitoyl])SKYLDEQAAKEFIAWLMNT
EC50 (GLP-1 receptor [11]): 0.003 nM | EC50 (glucagon receptor [12]): 0.008 nM

B16: Chi-2, AIB2, Lys10 γE-C16 (SEQ ID NO: 645) (peptide)
peptide: H[Aib]QGTFTSDK([γGlu-Palmitoyl])SKYLDEQAAKEFIAWLMNT-NH2
modifications: N-terminus assumed
SMILES: CCCCCCCCCCCCCCCC(=O)N[C@@H](CCC(=O)NCCCC[C@H](NC(=O)[C@H](CC(=O)O)NC(=O)[C@H](CO)NC(=O)[C@@H](NC(=O)[C@H](Cc1ccccc1)NC(=O)[C@@H](NC(=O)CNC(=O)[C@H](CCC(N)=O)NC(=O)C(C)(C)NC(=O)[C@@H](N)Cc1c[nH]cn1)[C@@H](C)O)[C@@H](C)O)C(=O)N[C@@H](CO)C(=O)N[C@@H](CCCCN)C(=O)N[C@@H](Cc1ccc(O)cc1)C(=O)N[C@@H](CC(C)C)C(=O)N[C@@H](CC(=O)O)C(=O)N[C@@H](CCC(=O)O)C(=O)N[C@@H](CCC(N)=O)C(=O)N[C@@H](C)C(=O)N[C@@H](C)C(=O)N[C@@H](CCCCN)C(=O)N[C@@H](CCC(=O)O)C(=O)N[C@@H](Cc1ccccc1)C(=O)N[C@H](C(=O)N[C@@H](C)C(=O)N[C@@H](Cc1c[nH]c2ccccc12)C(=O)N[C@@H](CC(C)C)C(=O)N[C@@H](CCSC)C(=O)N[C@@H](CC(N)=O)C(=O)N[C@H](C(N)=O)[C@@H](C)O)[C@@H](C)CC)C(=O)O
EC50 (GLP-1 receptor [11]): 0.0014 nM | EC50 (glucagon receptor [12]): 0.025 nM

B17: Chi-2, AIB2, E3, Lys10 C16 no spacer (SEQ ID NO: 647) (peptide)
peptide: H[Aib]EGTFTSDK(Palmitoyl)SKYLDEQAAKEFIAWLMNT-NH2
modifications: N-terminus assumed
SMILES: CCCCCCCCCCCCCCCC(=O)NCCCC[C@H](NC(=O)[C@H](CC(=O)O)NC(=O)[C@H](CO)NC(=O)[C@@H](NC(=O)[C@H](Cc1ccccc1)NC(=O)[C@@H](NC(=O)CNC(=O)[C@H](CCC(=O)O)NC(=O)C(C)(C)NC(=O)[C@@H](N)Cc1c[nH]cn1)[C@@H](C)O)[C@@H](C)O)C(=O)N[C@@H](CO)C(=O)N[C@@H](CCCCN)C(=O)N[C@@H](Cc1ccc(O)cc1)C(=O)N[C@@H](CC(C)C)C(=O)N[C@@H](CC(=O)O)C(=O)N[C@@H](CCC(=O)O)C(=O)N[C@@H](CCC(N)=O)C(=O)N[C@@H](C)C(=O)N[C@@H](C)C(=O)N[C@@H](CCCCN)C(=O)N[C@@H](CCC(=O)O)C(=O)N[C@@H](Cc1ccccc1)C(=O)N[C@H](C(=O)N[C@@H](C)C(=O)N[C@@H](Cc1c[nH]c2ccccc12)C(=O)N[C@@H](CC(C)C)C(=O)N[C@@H](CCSC)C(=O)N[C@@H](CC(N)=O)C(=O)N[C@H](C(N)=O)[C@@H](C)O)[C@@H](C)CC
EC50 (GLP-1 receptor [11]): 0.005 nM | EC50 (glucagon receptor [12]): 46.1 nM

B18: Chi-2, AIB2, E3, Lys10 γE-γE-C16 (SEQ ID NO: 648) (peptide)
peptide: H[Aib]EGTFTSDK([γGlu-γGlu-Palmitoyl])SKYLDEQAAKEFIAWLMNT
EC50 (GLP-1 receptor [11]): 0.004 nM | EC50 (glucagon receptor [12]): 2.92 nM

B19: Chi-2, AIB2, I7, Lys10 γE-γE-C16 (SEQ ID NO: 650) (peptide)
peptide: H[Aib]QGTFISDK([γGlu-γGlu-Palmitoyl])SKYLDEQAAKEFIAWLMNT-NH2
modifications: N-terminus assumed
SMILES: CCCCCCCCCCCCCCCC(=O)N[C@@H](CCC(=O)N[C@@H](CCC(=O)NCCCC[C@H](NC(=O)[C@H](CC(=O)O)NC(=O)[C@H](CO)NC(=O)[C@@H](NC(=O)[C@H](Cc1ccccc1)NC(=O)[C@@H](NC(=O)CNC(=O)[C@H](CCC(N)=O)NC(=O)C(C)(C)NC(=O)[C@@H](N)Cc1c[nH]cn1)[C@@H](C)O)[C@@H](C)CC)C(=O)N[C@@H](CO)C(=O)N[C@@H](CCCCN)C(=O)N[C@@H](Cc1ccc(O)cc1)C(=O)N[C@@H](CC(C)C)C(=O)N[C@@H](CC(=O)O)C(=O)N[C@@H](CCC(=O)O)C(=O)N[C@@H](CCC(N)=O)C(=O)N[C@@H](C)C(=O)N[C@@H](C)C(=O)N[C@@H](CCCCN)C(=O)N[C@@H](CCC(=O)O)C(=O)N[C@@H](Cc1ccccc1)C(=O)N[C@H](C(=O)N[C@@H](C)C(=O)N[C@@H](Cc1c[nH]c2ccccc12)C(=O)N[C@@H](CC(C)C)C(=O)N[C@@H](CCSC)C(=O)N[C@@H](CC(N)=O)C(=O)N[C@H](C(N)=O)[C@@H](C)O)[C@@H](C)CC)C(=O)O)C(=O)O
EC50 (GLP-1 receptor [11]): 0.01 nM | EC50 (glucagon receptor [12]): 0.007 nM
